Data set [1] concerns the target T1, Human neutrophil elastase (Homo sapiens, UniProt P08246 P08246:30-267). Kind of data set: filter; 6 mM KCl, 2 mM MgCl2, pH 7.0. As to conditions: tags: Athens Research and Technology.
In a further data set the target is Thrombin (UniProt P00734;P00734 P00734:328-363,P00734:364-622). The experiment in a line: filter; specificity control.
For data set [2], the target named is T1, Human neutrophil elastase. The experiment in a line: filter; no KCl in binding buffer. As to conditions: tags: Athens Research and Technology; G4 predicted.
Data set [3] has as its target Basic fibroblast growth factor (bFGF) (UniProt P09038 P09038:143-288). Kind of data set: filter; specificity control.
Data set [4] concerns the target T1, Human neutrophil elastase. The experiment in a line: filter; 3'-truncated. As to conditions: tags: Athens Research and Technology. The source says: (§1) With the use of PCR primers specific for the 3' sequence of the 2'-NH₂ modified RNA ligand, the 3'-fixed regions for four different ligands (class I ligand 12, class II ligand 14, class III ligand 9 and class IV ligand 19) were eliminated.

In data set [5] the target is T1, Human neutrophil elastase. Kind of data set: competition; competes with ligand 24. Conditions: tags: Athens Research and Technology; G4 predicted.
Data set [6] concerns the target T1, Human neutrophil elastase. The experiment in a line: filter; better at pH 5, Kd rises about 3-fold over two pH units; ligand 17 legend cites SEQ ID NO:1, sequence taken from Example 7. As to conditions: tags: Athens Research and Technology; G4 predicted.
Data set [7] has as its target T1, Human neutrophil elastase. The experiment in a line: filter; 3'-truncated; also FIG. 1. As to conditions: tags: Athens Research and Technology.
Text: as §1

T1 sequence (P08246 30-267, one chain of several): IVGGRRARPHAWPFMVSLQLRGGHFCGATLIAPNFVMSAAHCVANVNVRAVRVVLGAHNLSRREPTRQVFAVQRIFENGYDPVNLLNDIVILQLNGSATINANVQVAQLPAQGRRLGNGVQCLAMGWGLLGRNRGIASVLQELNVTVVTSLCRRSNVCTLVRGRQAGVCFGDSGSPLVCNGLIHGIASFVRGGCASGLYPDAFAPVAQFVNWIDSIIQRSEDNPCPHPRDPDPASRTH
Basic fibroblast growth factor (bFGF), sequence (P09038 143-288, one chain of several): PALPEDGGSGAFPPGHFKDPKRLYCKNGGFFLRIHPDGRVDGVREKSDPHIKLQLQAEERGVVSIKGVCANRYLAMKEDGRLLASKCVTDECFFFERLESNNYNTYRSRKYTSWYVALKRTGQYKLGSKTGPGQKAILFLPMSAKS

B1: ligand 22 (class V) (ssRNA)
RNA: GGGAGCUCAGAAUAAACGCUCAAGGCCCUCUGAACCGUCUGGGCGUGGUUAGUGGGUGGCUUCGACAUGAGGCCCGGAUCCGGC
modifications: 2'-NH2 all pyrimidines
As usually defined, the Kd is the free concentration of one partner at which half of the binding sites on the other are occupied at equilibrium, for simple one-to-one binding. In data set [1], B1 gave a Kd of 24 nM.

B2: ligand 24 (class II) (ssRNA)
RNA: GGGAGCUCAGAAUAAACGCUCAAGGUAGACAUACGCCUUGGGGGGGUAUCAGGGUAUAUGGUAUUCGACAUGAGGCCCGGAUCCGGC
modifications: 2'-NH2 all pyrimidines
Regarding B2, the Kd was 11 nM in data set [1] (G4 predicted) and 600 nM with Thrombin.

B3: ligand 21 (class II; ligand 56 same SEQ ID) (ssRNA)
RNA: GGGAGCUCAGAAUAAACGCUCAAGGUAGACAUACGCCUUGGGGGGGUGUCAGGGUAUAUGGUAUUCGACAUGAGGCCCGGAUCCGGC
modifications: 2'-NH2 all pyrimidines
Take B3: the values for the Kd in data set [2] and in data set [1] (G4 predicted) were 192 nM and 39 nM, respectively.

B4: ligand 14 (class II) (ssRNA)
RNA: GGGAGCUCAGAAUAAACGCUCAAGGCAGACAUACGCCUUGGGGGGGUUUCAGGGUAUAUGGCAUUCGACAUGAGGCCCGGAUCCGGC
modifications: 2'-NH2 all pyrimidines
B4: binding in data set [1] was characterised by a dissociation constant (Kd) of 17 nM.

B5: ligand 9 (class III) (ssRNA)
RNA: GGGAGCUCAGAAUAAACGCUCAAGGAAUGAAUGUGAUGAACAGGUGUCGGGGUGGAUGGGUGGUUCGACAUGAGGCCCGGAUCCGGC
modifications: 2'-NH2 all pyrimidines
In data set [3], B5 registered an equilibrium dissociation constant (Kd) of 500 nM.

B6: ligand 19 (class IV) (ssRNA)
RNA: GGGAGCUCAGAAUAAACGCUCAAUGCCCGGCAGUACUGCACGGCCUCGGGGGGGACCAGGGAGUUCGACAUGAGGCCCGGAUCCGGC
modifications: 2'-NH2 all pyrimidines
As to B6, in data set [1], binding was put at a Kd of 8 nM.

B7: ligand 19 3'-truncated (ssRNA)
RNA: GGGAGCUCAGAAUAAACGCUCAAUGCCCGGCAGUACUGCACGGCCUCGGGGGGGACCAGGGAG
modifications: 2'-NH2 all pyrimidines
Regarding B7, in data set [4], binding was characterised by a dissociation constant (Kd) of 648 nM.

B8: ligand 44 (class I) (ssRNA)
RNA: GGGAGCUCAGAAUAAACGCUCAAGAGUAGGCUUGACGCUGGGGGGGUAUGGCUUCGACUUGCGUUCGACAUGAGGCCCGGAUCCGGC
modifications: 2'-NH2 all pyrimidines
On to B8, for which binding in data set [1] was put at a Kd of 28 nM.

B9: ligand 12 3'-truncated (ssRNA)
RNA: GGGAGCUCAGAAUAAACGCUCAAGAGUAGGCUUGACGCCUGGGGGGGUAUGGCUUCGACUGCG
modifications: 2'-NH2 all pyrimidines
As to B9, binding in data set [4] was put at a Kd of 10 nM.

B10: ligand 26 (class III) (ssRNA)
RNA: GGGAGCUCAGAAUAAACGCUCAACGCCUUAGUCGCCAUAAUGCUGUCGGGGUGGAUAGGGUGGUUCGACAUGAGGCCCGGAUCCGGC
modifications: 2'-NH2 all pyrimidines
Regarding B10, binding in data set [1] was characterised by a dissociation constant (Kd) of 38 nM.

B11: ligand 30 (class I; ligand 12 same SEQ ID) (ssRNA)
RNA: GGGAGCUCAGAAUAAACGCUCAAGAGUAGGCUUGACGCCUGGGGGGGUAUGGCUUCGACUGCGUUCGACAUGAGGCCCGGAUCCGGC
modifications: 2'-NH2 all pyrimidines
In the case of B11, in data set [5], the binding result is recorded as “binds”.

B12: ligand 4 (class V) (ssRNA)
RNA: GGGAGCUCAGAAUAAACGCUCAACGGAUCGGGCGGUCGUCUAGCGGGAUGGCGUGCGGGUGGAUUCGACAUGAGGCCCGGAUCCGGC
modifications: 2'-NH2 all pyrimidines
For the molecule B12, the Kd in data set [1] worked out at 172 nM.

B13: ligand 3 (class VI) (ssRNA)
RNA: GGGAGCUCAGAAUAAACGCUCAAUGAGGUUGAGUAGUCGUGGUAAUGGCCACGGCUGGGGGGGUCGGUUCGACAUGAGGCCCGGAUCCGGC
modifications: 2'-NH2 all pyrimidines
On to B13, for which the affinity in data set [1], expressed as Kd, was 28 nM.

B14: DNA-17 (ssDNA)
DNA: TAGCGATACTGCGTGGGTTGGGGCGGGTAGGGCCAGCAGTCTCGTGCGGTACTTGAGCA
Turning to B14, the binding result in data set [6] was “binds”.

B15: ligand 46 (class VI) (ssRNA)
RNA: GGGAGCUCAGAAUAAACGCUCAAUGGAUAGCGCUGCGUGACCGCGCUGGGGGGGUUGGCAGGGUUCGACAUGAGGCCCGGAUCCGGC
modifications: 2'-NH2 all pyrimidines
In data set [1], B15 showed a Kd of 13 nM.

B16: ligand 9 3'-truncated (ssRNA)
RNA: GGGAGCUCAGAAUAAACGCUCAAGGAAUGAAUGUGAUGAACAGGUGUCGGGGUGGAUGGGUGG
modifications: 2'-NH2 all pyrimidines
B16 yielded an equilibrium dissociation constant (Kd) in data set [4] of 989 nM.

B17: ligand 14 3'-truncated (ssRNA)
RNA: GGGAGCUCAGAAUAAACGCUCAAGGCAGACAUACGCCUUGGGGGGGUUUCAGGGUAUAUGGCA
modifications: 2'-NH2 all pyrimidines
As to B17, binding in data set [7] was characterised by a dissociation constant (Kd) of 14.5 nM.

B18: ligand 28 (class IV) (ssRNA)
RNA: GGGAGCUCAGAAUAAACGCUCAAAUCGGAUAGCGCCGCGAUGGCGUCUGGGGGGGACCAGGGAUUCGACAUGAGGCCCGGAUCCGGC
modifications: 2'-NH2 all pyrimidines
Consider B18, for which the Kd in data set [1] was determined as 57 nM.
